# Substrate: NC(=O)C1=CN([C@@H]2O[C@H](COP(=O)(O)OP(=O)(O)OC[C@H]3O[C@@H](n4cnc5c(N)ncnc54)[C@H](OP(=O)(O)O)[C@@H]3O)[C@@H](O)[C@H]2O)C=CC1
# Experiment: purified protein
# Format: biochemical, Candidatus Pelagibacter sp. HTCC7211
# Conditions: 1 mM DMS, 1.5 μM enzyme
Protein,Km [µM],kcat [s⁻¹]
"Tmm7211 (Candidatus Pelagibacter sp. HTCC7211; R409A) (protein, full-length synthesized gene (1335 bp, 444 residues, 52 kDa), N-terminal His tag (pET28a), E. coli BL21(DE3); Ni-NTA and Superdex-200) MSKVAIIGAGPCGLSILRAFEHLEKKGEKIPEIVCFEKQESWGGLWNYNWRTGSDQYGDPVPNSMYRYLWSNGPKECLEFADYSFDQHFGKSIPSFPPREVLQDYILGRVSKGNIKNKIKFNTRVINTVYRNDKFEINYQDKVNDKTLSDTFDYLVVSTGHFSVPFIPEYEGMSSFPGRIMHSHDFRDAEEFRGKNVIVLGSSYSAEDVALQCNKYGAKSVTIGYRHNPMGFKWPKGMKEVHYLDKLDGKKAIFKDGTEQDADVVILCTGYLHHFPFLDESLKLKTHNRLYPPKLYKGVVWQDNHKLLYLGMQDQFHTFNMFDCQAWFARDVIMDKIKMPSDDEIDKDINKWVSMEEKLENPDQMIDFQTEYTKELHNISDYPKIDFELIRKHFKEWEHHKVEDILTYANKSFSSPVTGSVAPVHHTPWEKAMDDSMKTFLNKR",44.9 ± 5.6,0.045 ± 0.00167
"Tmm7211 (Candidatus Pelagibacter sp. HTCC7211; S203A) (protein, full-length synthesized gene (1335 bp, 444 residues, 52 kDa), N-terminal His tag (pET28a), E. coli BL21(DE3); Ni-NTA and Superdex-200) MSKVAIIGAGPCGLSILRAFEHLEKKGEKIPEIVCFEKQESWGGLWNYNWRTGSDQYGDPVPNSMYRYLWSNGPKECLEFADYSFDQHFGKSIPSFPPREVLQDYILGRVSKGNIKNKIKFNTRVINTVYRNDKFEINYQDKVNDKTLSDTFDYLVVSTGHFSVPFIPEYEGMSSFPGRIMHSHDFRDAEEFRGKNVIVLGSAYSAEDVALQCNKYGAKSVTIGYRHNPMGFKWPKGMKEVHYLDKLDGKKAIFKDGTEQDADVVILCTGYLHHFPFLDESLKLKTHNRLYPPKLYKGVVWQDNHKLLYLGMQDQFHTFNMFDCQAWFARDVIMDKIKMPSDDEIDKDINKWVSMEEKLENPDQMIDFQTEYTKELHNISDYPKIDFELIRKHFKEWEHHKVEDILTYRNKSFSSPVTGSVAPVHHTPWEKAMDDSMKTFLNKR",134.8 ± 11.1,0.0167 ± 0.00167
"Tmm7211 (Candidatus Pelagibacter sp. HTCC7211; H227A) (protein, full-length synthesized gene (1335 bp, 444 residues, 52 kDa), N-terminal His tag (pET28a), E. coli BL21(DE3); Ni-NTA and Superdex-200) MSKVAIIGAGPCGLSILRAFEHLEKKGEKIPEIVCFEKQESWGGLWNYNWRTGSDQYGDPVPNSMYRYLWSNGPKECLEFADYSFDQHFGKSIPSFPPREVLQDYILGRVSKGNIKNKIKFNTRVINTVYRNDKFEINYQDKVNDKTLSDTFDYLVVSTGHFSVPFIPEYEGMSSFPGRIMHSHDFRDAEEFRGKNVIVLGSSYSAEDVALQCNKYGAKSVTIGYRANPMGFKWPKGMKEVHYLDKLDGKKAIFKDGTEQDADVVILCTGYLHHFPFLDESLKLKTHNRLYPPKLYKGVVWQDNHKLLYLGMQDQFHTFNMFDCQAWFARDVIMDKIKMPSDDEIDKDINKWVSMEEKLENPDQMIDFQTEYTKELHNISDYPKIDFELIRKHFKEWEHHKVEDILTYRNKSFSSPVTGSVAPVHHTPWEKAMDDSMKTFLNKR",41.2 ± 2.3,0.0417 ± 0.00333
"Tmm7211 (Candidatus Pelagibacter sp. HTCC7211; N288A) (protein, full-length synthesized gene (1335 bp, 444 residues, 52 kDa), N-terminal His tag (pET28a), E. coli BL21(DE3); Ni-NTA and Superdex-200) MSKVAIIGAGPCGLSILRAFEHLEKKGEKIPEIVCFEKQESWGGLWNYNWRTGSDQYGDPVPNSMYRYLWSNGPKECLEFADYSFDQHFGKSIPSFPPREVLQDYILGRVSKGNIKNKIKFNTRVINTVYRNDKFEINYQDKVNDKTLSDTFDYLVVSTGHFSVPFIPEYEGMSSFPGRIMHSHDFRDAEEFRGKNVIVLGSSYSAEDVALQCNKYGAKSVTIGYRHNPMGFKWPKGMKEVHYLDKLDGKKAIFKDGTEQDADVVILCTGYLHHFPFLDESLKLKTHARLYPPKLYKGVVWQDNHKLLYLGMQDQFHTFNMFDCQAWFARDVIMDKIKMPSDDEIDKDINKWVSMEEKLENPDQMIDFQTEYTKELHNISDYPKIDFELIRKHFKEWEHHKVEDILTYRNKSFSSPVTGSVAPVHHTPWEKAMDDSMKTFLNKR",61.1 ± 4.0,0.0217 ± 0.00167
"Tmm7211 (Candidatus Pelagibacter sp. HTCC7211; R226A) (protein, full-length synthesized gene (1335 bp, 444 residues, 52 kDa), N-terminal His tag (pET28a), E. coli BL21(DE3); Ni-NTA and Superdex-200) MSKVAIIGAGPCGLSILRAFEHLEKKGEKIPEIVCFEKQESWGGLWNYNWRTGSDQYGDPVPNSMYRYLWSNGPKECLEFADYSFDQHFGKSIPSFPPREVLQDYILGRVSKGNIKNKIKFNTRVINTVYRNDKFEINYQDKVNDKTLSDTFDYLVVSTGHFSVPFIPEYEGMSSFPGRIMHSHDFRDAEEFRGKNVIVLGSSYSAEDVALQCNKYGAKSVTIGYAHNPMGFKWPKGMKEVHYLDKLDGKKAIFKDGTEQDADVVILCTGYLHHFPFLDESLKLKTHNRLYPPKLYKGVVWQDNHKLLYLGMQDQFHTFNMFDCQAWFARDVIMDKIKMPSDDEIDKDINKWVSMEEKLENPDQMIDFQTEYTKELHNISDYPKIDFELIRKHFKEWEHHKVEDILTYRNKSFSSPVTGSVAPVHHTPWEKAMDDSMKTFLNKR",101.8 ± 8.6,0.015 ± 0.00167
"Tmm7211 (Candidatus Pelagibacter sp. HTCC7211; N72A) (protein, full-length synthesized gene (1335 bp, 444 residues, 52 kDa), N-terminal His tag (pET28a), E. coli BL21(DE3); Ni-NTA and Superdex-200) MSKVAIIGAGPCGLSILRAFEHLEKKGEKIPEIVCFEKQESWGGLWNYNWRTGSDQYGDPVPNSMYRYLWSAGPKECLEFADYSFDQHFGKSIPSFPPREVLQDYILGRVSKGNIKNKIKFNTRVINTVYRNDKFEINYQDKVNDKTLSDTFDYLVVSTGHFSVPFIPEYEGMSSFPGRIMHSHDFRDAEEFRGKNVIVLGSSYSAEDVALQCNKYGAKSVTIGYRHNPMGFKWPKGMKEVHYLDKLDGKKAIFKDGTEQDADVVILCTGYLHHFPFLDESLKLKTHNRLYPPKLYKGVVWQDNHKLLYLGMQDQFHTFNMFDCQAWFARDVIMDKIKMPSDDEIDKDINKWVSMEEKLENPDQMIDFQTEYTKELHNISDYPKIDFELIRKHFKEWEHHKVEDILTYRNKSFSSPVTGSVAPVHHTPWEKAMDDSMKTFLNKR",34.1 ± 1.0,0.0317 ± 0.00333
